Data reported in patent publication US20240245798A1 (TUBULIS, published 2024).

Experiments:
[1] = biological target: T1, human 5T4 (trophoblast glycoprotein, TPBG), endogenously expressed on tumor cells (human, UniProt Q13641 32-420); test: flow cytometry on MDA-MB-468 cells endogenously expressing human 5T4, 0.002 to 200 nM, one-site specific binding fit
T1 construct: the protein stood on cell lines that express it endogenously; also called endogenously expressed human 5T4; MDA-MB-468 cells
T1 sequence: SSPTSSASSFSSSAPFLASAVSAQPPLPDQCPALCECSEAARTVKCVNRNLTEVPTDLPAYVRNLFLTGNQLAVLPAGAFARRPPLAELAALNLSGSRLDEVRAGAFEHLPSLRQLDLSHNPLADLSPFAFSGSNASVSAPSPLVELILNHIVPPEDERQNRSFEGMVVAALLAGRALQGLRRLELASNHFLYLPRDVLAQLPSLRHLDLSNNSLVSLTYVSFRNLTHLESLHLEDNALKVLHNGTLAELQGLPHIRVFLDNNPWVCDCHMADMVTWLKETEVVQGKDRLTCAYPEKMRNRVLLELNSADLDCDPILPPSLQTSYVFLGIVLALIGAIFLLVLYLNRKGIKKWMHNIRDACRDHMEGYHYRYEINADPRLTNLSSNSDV

[2] = biological target: T2, recombinant hexameric human C1q complement protein (human, UniProt P02745 23-245; P02746 28-253; P02747 29-245, limits assumed); test: HTRF human C1q binding assay (Cisbio)
T2 construct: Described only as recombinant hexameric C1q; also called complement factor C1q

[3] = biological target: T3, white-tufted-ear marmoset full-length 5T4-(GGGGS)-mCherry, transiently expressed on HEK293 cells (white-tufted-ear marmoset (Callithrix …, UniProt Q13641 32-420 (human entry))); test: flow cytometry on mCherry-positive HEK293 cells transiently expressing marmoset full-length 5T4-mCherry, one-site specific binding fit
T3 construct: also called marmoset full-length 5T4-mCherry; marmoset 5T4; not shown: mCherry fluorescent protein
T3 chain: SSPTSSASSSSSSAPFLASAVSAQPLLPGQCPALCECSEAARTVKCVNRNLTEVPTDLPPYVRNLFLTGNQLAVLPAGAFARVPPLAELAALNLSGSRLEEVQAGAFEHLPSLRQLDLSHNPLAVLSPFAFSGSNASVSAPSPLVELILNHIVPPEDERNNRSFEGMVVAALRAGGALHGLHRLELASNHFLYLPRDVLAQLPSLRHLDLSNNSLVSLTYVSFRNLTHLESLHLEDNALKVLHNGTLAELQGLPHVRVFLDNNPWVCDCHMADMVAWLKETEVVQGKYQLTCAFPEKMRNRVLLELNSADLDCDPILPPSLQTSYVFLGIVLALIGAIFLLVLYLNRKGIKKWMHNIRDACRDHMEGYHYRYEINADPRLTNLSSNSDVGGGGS

[4] = biological target: T4, purified recombinant human 5T4 antigen, extracellular domain as 6x-Histidine fusion protein (glycosylated) (human, UniProt Q13641 32-355); test: ELISA on immobilized recombinant human 5T4 ECD-6xHis; apparent KD, one-site specific binding fit
T4 construct: Expressed in Expi-HEK293; also called glycosylated 5T4; recombinant immobilized human 5T4 antigen; not shown: 6x-Histidine tag
T4 sequence: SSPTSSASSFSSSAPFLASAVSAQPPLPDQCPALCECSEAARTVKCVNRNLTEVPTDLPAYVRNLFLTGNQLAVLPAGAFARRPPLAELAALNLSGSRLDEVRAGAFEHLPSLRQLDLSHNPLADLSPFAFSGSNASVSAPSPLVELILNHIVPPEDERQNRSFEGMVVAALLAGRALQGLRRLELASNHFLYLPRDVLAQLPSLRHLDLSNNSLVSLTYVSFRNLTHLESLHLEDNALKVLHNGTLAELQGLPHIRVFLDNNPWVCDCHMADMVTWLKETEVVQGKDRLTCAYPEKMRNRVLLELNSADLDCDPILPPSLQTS

[5] = biological target: T5, human full-length 5T4-(GGGGS)-mCherry, transiently expressed on HEK293 cells (human, UniProt Q13641 32-420); test: flow cytometry on mCherry-positive HEK293 cells transiently expressing human full-length 5T4-mCherry, one-site specific binding fit
T5 construct: also called human full-length 5T4-mCherry; not shown: mCherry fluorescent protein
T5 sequence: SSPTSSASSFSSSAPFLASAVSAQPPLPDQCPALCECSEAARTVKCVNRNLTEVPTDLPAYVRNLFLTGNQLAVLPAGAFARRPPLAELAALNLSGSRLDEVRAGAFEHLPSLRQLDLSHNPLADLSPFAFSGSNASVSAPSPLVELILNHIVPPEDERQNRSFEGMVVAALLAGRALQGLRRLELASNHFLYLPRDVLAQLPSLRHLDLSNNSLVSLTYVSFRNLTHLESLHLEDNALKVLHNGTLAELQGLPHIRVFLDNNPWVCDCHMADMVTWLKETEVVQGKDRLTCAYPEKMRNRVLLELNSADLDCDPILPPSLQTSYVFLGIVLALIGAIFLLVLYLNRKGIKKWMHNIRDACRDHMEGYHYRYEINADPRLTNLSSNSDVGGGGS

[6] = biological target: T6, purified recombinant human 5T4 antigen, extracellular domain as 6x-Histidine fusion protein, de-glycosylated … (human, UniProt Q13641 32-355, de-glycosylated with PNGase F over night at 37 C); test: ELISA on immobilized PNGase F-treated recombinant human 5T4 ECD-6xHis; apparent KD, one-site specific binding fit
T6 construct: Same construct as m5 after PNGase F treatment; also called de-glycosylated 5T4; not shown: 6x-Histidine tag
T6 sequence: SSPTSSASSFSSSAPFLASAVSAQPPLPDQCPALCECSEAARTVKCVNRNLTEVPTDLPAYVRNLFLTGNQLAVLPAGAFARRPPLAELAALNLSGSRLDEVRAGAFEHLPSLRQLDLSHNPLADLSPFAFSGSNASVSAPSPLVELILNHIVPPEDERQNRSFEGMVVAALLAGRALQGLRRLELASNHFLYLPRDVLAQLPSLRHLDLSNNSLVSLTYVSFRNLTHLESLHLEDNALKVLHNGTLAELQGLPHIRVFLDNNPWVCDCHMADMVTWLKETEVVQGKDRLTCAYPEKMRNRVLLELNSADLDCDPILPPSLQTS

T2 sequence (P02745 23-245 limits assumed, chain 1 of 3): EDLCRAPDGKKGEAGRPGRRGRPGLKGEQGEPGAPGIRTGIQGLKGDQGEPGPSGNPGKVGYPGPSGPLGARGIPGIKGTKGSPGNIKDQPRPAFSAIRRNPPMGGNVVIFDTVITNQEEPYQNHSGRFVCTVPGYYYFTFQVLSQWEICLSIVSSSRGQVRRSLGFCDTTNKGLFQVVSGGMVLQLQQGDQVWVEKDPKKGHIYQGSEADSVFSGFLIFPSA
T2 sequence (P02746 28-253 limits assumed, chain 2 of 3): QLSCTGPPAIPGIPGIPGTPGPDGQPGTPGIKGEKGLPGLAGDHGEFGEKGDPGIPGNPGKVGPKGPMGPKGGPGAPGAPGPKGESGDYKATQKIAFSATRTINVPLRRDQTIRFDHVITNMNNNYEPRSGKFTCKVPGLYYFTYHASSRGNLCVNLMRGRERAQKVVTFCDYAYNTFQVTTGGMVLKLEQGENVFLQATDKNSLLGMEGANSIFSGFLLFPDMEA
T2 sequence (P02747 29-245 limits assumed, chain 3 of 3): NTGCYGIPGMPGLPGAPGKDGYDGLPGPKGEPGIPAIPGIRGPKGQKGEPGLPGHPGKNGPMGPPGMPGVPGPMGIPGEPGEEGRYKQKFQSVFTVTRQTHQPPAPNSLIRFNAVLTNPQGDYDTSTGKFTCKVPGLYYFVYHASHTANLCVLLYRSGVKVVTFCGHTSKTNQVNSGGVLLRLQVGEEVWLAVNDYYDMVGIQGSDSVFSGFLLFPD

B1: anti-TPBG antibody HC-LALA (LALA-silenced anti-TPBG antibody) (antibody)
heavy: not shown
light: EIVMTQSPDSLAVSLGERATINCKASQSVSNDVAWYQQKPGQPPKLLIYYTSSRYAGVPDRFSGSGSGTDFTLTISSLQAEDVAVYYCQQDYNSPPTFGGGTKLEIKRTVAAPSVFIFPPSDEQLKSGTASVVCLLNNFYPREAKVQWKVDNALQSGNSQESVTEQDSKDSTYSLSSTLTLSKADYEKHKVYACEVTHQGLSSPVTKSFNRGEC
notes: also called anti-TBPG antibody; anti-TPBG mAb HC-LALA
[1]
  Kd: 0.247 nM
[2]
  binding result: no binding (tested: serial dilutions 280 nM-11.6 nM)
[3]
  Kd: 5.46 nM
[4]
  Kd: 0.1 nM
[5]
  Kd: 2.15 nM
[6]
  Kd: 0.16 nM
